According to the DeepSol protein solubility set:

Experiment: soluble on expression in E. coli; label from the status in PepcDB or PDB records

| Sequence | soluble on expression in E. coli |
| --- | --- |
| MGSDKIHHHHHHMFVPAPDATITNCRNCPLRRKPLFLPFSDSELSFMEQFKVGELVVAPGVTLLEEGQGSAHLFTVLSGLGIRSTMLENGRRQVINFLFPGDFIGLQAGLAGEMRHSVESTTTMVLCVFNRADLWDLFREEPERAYDLTWIAAVEEHFLGETIASLGQRDATERLAWALLRIHERLSAIGLAERGRVPMPWRQQDLADALGLSLVHTNKTIRRLRETGHALWEGGTLFVDRERLATLALADPDRPRRRPLI | not soluble |
| METALYLLPVTLGDTPLEQVLPSYNTEIIRGIRHFIVEDVRSARRFLKKVDREIDIDSLTFYPLNKHTSPEDISGYLKPLAGGASMGVISEAGCPAVADPGADVVAIAQRQKLKVIPLVGPSSIILSVMASGFNGQSFAFHGYLPIEPGERAKKLKTLEQRVYAESQTQLFIETPYRNHKMIEDILQNCRPQTKLCIAANITCEGEFIQTRTVKDWKGHIPELSKIPCIFLLYKLEHHHHHH | soluble |
| MPMRYWLMKSEPDETSIDHLAAEPARLFEWTGVRNYQARNFMRDDMQPGDLLLFWHSSCPEPGIAGIAEVAAAAHADSSQFDPASPYHDPKSDPADPRWLCVDVRFVRKTRLLPPAELRRHPPLEGMTVLKRGNRLSITPVTAEEWAYLMDLLDIRRAGLEHHHHHH | soluble |
| MGSDKIHHHHHHMNKQPLAFRMRPKKIEDVVGQQHLIGKGKIIWRMVQAHRLSSMILYGEPGTGKTSIASAIAGSTELSFRILNAATDGKKELQEVAEEGKMSGSVILLLDEIHRLDKTKQDFLLPHLESGRIVLIGATTENPYLSVTPAIRSRTQIFHVEALSEKDIKTAINRALSDKENGLGNYNIKLDDRAKNHLSTATNGDLRSALNGLELAVLSTKAVGKEKEIHITLPIIEETIQRKSMSGDKNGDAHYDVISAFQKSIRGSDADAGIYYLGRILEAGDLTIAARRLLVIAYEDVGLANPNAAAHAVQAVTAALQLGLPEARIPLANAVIELALSPKSNSAYGAINSAIGDIEKGNTGDVPIHLKNTRNWGKTKNQ | not soluble |
| MIHYKIAPSPLDHEWHILLKFTQDNDFPIEISLPNWVPGSYLIRDFSRHITSIHASCNGTSMPLEQIAKNRWHTAAVRGEWQIRYTVYAFDLSVRGSFLTTERGFFDGSCLFLKVEGTETLPHRLELTGIPPEWRIATTLPETGRLVFQTASYDELIDRPVEMGLIEFLDFEAAGIPHTIALNGIYPDFDRDRLVSDIKKICETELAMFSSPAPFEKYLFLLHVGDHIYGGLEHTDSTALLADRHSLPPYGMTDADDAYTTLLGLFSHEYFHAWNVKSIKPAAFAPYDLDKENYTEQLWAFEGITSYYDDLFLARSRTISPEFYLNLLAQGITRVQQTRGRLRQTLAESSFTAWNKFYKPDENSPNAIVSYYQKGALAALCLDLIIRNRSNGRHSLDTVMDKLYREWRDTHSGIPEKHWQIRCQEITGLDLTDFFQTALYSTEDLPLAECLATTGVKLTFLPLPRQHGGGYAEHIFPIPPTGDFGARFKQNADHIVLTHVFNGGSAESAALCPQDKIIALDGYACTDFAAQWARYHVRAKINIHFFRAGILRQTVLTVQATAADTAILHITDRNLLENWLFGLEHHHHHH | not soluble |
| MFKPELLSPAGTLKNMRYAFAYGADAVYAGQPRYSLRVRNNEFNHENLQLGINEAHALGKKFYVVVNIAPHNAKLKTFIRDLKPVVEMGPDALIMSDPGLIMLVREHFPEMPIHLSVQANAVNWATVKFWQQMGLTRVILSRELSLEEIEEIRNQVPDMEIEIFVHGALCMAYSGRCLLSGYINKRDPNQGTCTNACRWEYNVQEGKEDDVGNIVHKYEPIPVQNVEPTLGIGAPTDKVFMIEEAQRPGEYMTAFEDEHGTYIMNSKDLRAIAHVERLTKMGVHSLKIEGRTKSFYYCARTAQVYRKAIDDAAAGKPFDTSLLETLEGLAHRGYTEGFLRRHTHDDYQNYEYGYSVSDRQQFVGEFTGERKGDLAAVAVKNKFSVGDSLELMTPQGNINFTLEHMENAKGEAMPIAPGDGYTVWLPVPQDLELNYALLMRNFSGETTRNPHGK | soluble |
| MGSDKIHHHHHHMKTYMISLHGAYENENFGDELLIAIQAKWINDEGYDVCLPFASKVYREQIPSLDKEGSRGLEESEKLIYTGGGYFGEPNHKTFKWGINFFRKKHHIPAKIFKKNNKKYLICGVGAGPITNPITRYTVVKICNFAEKVVVRDTTSYDYLIKYGVIPEKIQVGADVVLSLTIHDLPKGSIEKAKKTLNKDNKNFYLGIHIGVSPDDENYKTNVKAAMESLANVIKRNSVVPVLIADKRNATSTQEKAIEYMSSLLDEEPIVYRHSNIWETCAFLSSLDGVVTTKLHVGITAYTLGTRTFGIAAHQKTRRFYNQIKKENYFYELKEVDNGIESSLELFIKDRYWDEETLQAKKELNERALLCKREMLQFLES | not soluble |
| MDTKNLTAVQLMELDSCTRCGECVKWCPTYAASGQKPGLAPRDKILRWRQYMNKSYGLKAKLFGPTEIPQSELEEFKDDVHGCTTCGICATVCESGINTVELWESLRTNLVKKGIGPFGKQGMFPKLEHHHHHH | not soluble |
| MSTLLDRVPCTIVTGFLGAGKTTLLRGLLEKLDGKRLAIIVNEFGDIGIDGEILKGCGIESCPEENIVELANGCICCTVADDFQPAIEQILSRQPKVEHILIETSGLALPKPLVQAFQWPAIKSRVTVDAVVAVVDGAALAEGQVAHDMEALAAQRANDEALDHDDPVEEVFEDQVACADLIVLTKADLLDDAGLEKAKAHILEHLPKAAKIVVASNGAIDPTVLIGLGLAVEEDIENRRTHHDGELDHEHDDFDSFVIDLPAVTDPEALAARIAQTAAAENVLRIKGFIEVATKPMRLQVQAVGSRVNHYYDRPWAAGEERRSRLVVIGEKGINREKIEQMLAA | not soluble |
| MAHHHHHHMVTFRCDCLHNEAEGALCRWKGKWHPANCTNTPVLLIGKGQPQGYFKLKLKVYAIFHGNGHRLHTLNCTDEDSSEDSLNATTCSDSDWRSITQQVPTEETVEQSAASEQGPSDTTKGSGSDDEETASSAPKSEGEEQEASGEGEETPKEDQQSPGEKRGTAGEKRGASGKKDGAGGEGLTRKEPEKGGATQGGKHTHPRGESSPEKGTVNDHQRDAAEDGTTTNGKQDADPGREEPVRGRDDTVAAGAGIVSNTGRIDRKPENKKGNNVRYGAIQNLLVAIVCFITG | not soluble |
| MGSDKIHHHHHHCASSLTQGKYVDGTHLVQAKGKKSQIVLEVKVDQGKIVDIKTKSHKETESLYLNAERLLPRIVANNGHEGIDAVSGATYSSNGILKAVNDLPRASSVQPEYVAVGAKEEQGDDFKLKWSIQPKLGLLVGDYYYEEARFRQGHMGSMTIVTNSQDRNDVILAEFNESGRPNYYTRLYQDVPKRMSEYNFSMGKKKGTAWVQSALTMEKLMVEQDKLTFEPNPNHDPKLANKLKEPNRLKYLGIDVVAGASNSIQQSMIPLTAKIHHKIHGEGTRLKFYQLAEKLVNEKGRWTGITAMLRLVVDPASKQIIKAHFDEIFADEKAQIQDASLKKFYRQSKYDSINYSEPARIGFNVMIDALNAHLQAGGSLFDINDLPATGDSGNYAATGFTKRSSSWDIYLNQAEQLYKKMRLDGVIAEHKHPAAK | not soluble |
| SLSFLYFNDNSKIANAPLKNRFEKTQKESLIIKNNNEDKKAKSKPKFYLIIDDVGYDEFMLEQFIKLNLKITYAIIPFLPKSMSLYKKLKNANKTVIIHFPMQSKHRNSIEKFHINIKDKKEEIHKKIEKAFKKYPDAKIMNNHMGSLITSNKDLMKIILEKLKEIDRYFFDSVTIAGSVPEIIGKEIGVKVEKRDVFLDSKDTEESVTKELEKAKNIARKNGMVKVIGHIWSKNTLKVLKKEGPDLNQEFEFDNLLNLYEETIR | soluble |
